The results in this text go back to patent publication US20150284428A1 (INTERK PEPTIDE THERAPEUTICS, published 2015).

The target in this test is T1, cytoplasmic domain of β6 having the amino acid sequence HDRKEVAKFEAERSKAKWQTGTNPLYRGSTSTFKNVTYKHREKQKVDLSTDC
T1 construct: Integrin β6 subunit cytoplasmic domain; also called β6 domain; cytoplasmic domain fragment of β6
T1 chain: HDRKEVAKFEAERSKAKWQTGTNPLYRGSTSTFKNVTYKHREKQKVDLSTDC
Description: binding assay of MAP kinase fragments with β6 cytoplasmic domain, FIG. 4.

HRDLKPSNLAVNEDCELKILDFGLAR (also called fragment of p38 MAP kinase) [p38 MAP kinase fragment HRDLKPSNLAVNEDCELKILDFGLAR]: the binding result is “binds”.
